{
  "source": "patent US20210047402A1",
  "about": "(published 2021)",
  "binders": {"B1": {"name": "anti-CD22 heavy chain-only antibody Clone ID 335293 (antibody, V domains shown)", "VH": "QLQLQESGPGLVKPSETLSLTCTVSGDSISSGDYYWGWIRQPPGKGLEWIGHIYYSGATYYNPSLKNRVTISVDTSRNQFSLKLSSVTAADTAVYYCTREDSSSWRSRGQGTLVTVSS"}, "B2": {"name": "anti-CD22 heavy chain-only antibody Clone ID 335182 (antibody, V domains shown)", "VH": "B1 VH with H52N, R77K, E100D, S104N"}, "B3": {"name": "anti-CD22 heavy chain-only antibody Clone ID 335218 (antibody, V domains shown)", "VH": "B1 VH with S104N"}, "B4": {"name": "anti-CD22 heavy chain-only antibody Clone ID 335301 (antibody, V domains shown)", "VH": "B1 VH with H52N, R77K"}, "B5": {"name": "anti-CD22 heavy chain-only antibody Clone ID 335158 (antibody, V domains shown)", "VH": "B1 VH with D27G, E100D, S104N"}, "B6": {"name": "anti-CD22 heavy chain-only antibody Clone ID 335170 (antibody, V domains shown)", "VH": "B1 VH with E100D, S104N"}, "B7": {"name": "anti-CD22 heavy chain-only antibody Clone ID 335244 (antibody, V domains shown)", "VH": "B1 VH with K83N"}, "B8": {"name": "anti-CD22 heavy chain-only antibody Clone ID 335206 (antibody, V domains shown)", "VH": "B1 VH with R77K, S104N"}, "B9": {"name": "anti-CD22 heavy chain-only antibody Clone ID 335245 (antibody, V domains shown)", "VH": "B1 VH with R77K"}, "B10": {"name": "anti-CD22 heavy chain-only antibody Clone ID 335254 (antibody, V domains shown)", "VH": "B1 VH with A58V, R77K"}, "B11": {"name": "anti-CD22 heavy chain-only antibody Clone ID 324508 (antibody, V domains shown)", "VH": "B1 VH with D27G, K66E, R77K, E100D, S104N"}, "B12": {"name": "anti-CD22 heavy chain-only antibody Clone ID 335181 (antibody, V domains shown)", "VH": "B1 VH with D33G, R77K, E100D, S104N"}, "B13": {"name": "anti-CD22 heavy chain-only antibody Clone ID 335271 (antibody, V domains shown)", "VH": "B1 VH with Q41H, R77K"}, "B14": {"name": "anti-CD22 heavy chain-only antibody Clone ID 335307 (antibody, V domains shown)", "VH": "B1 VH with H52S, A58S, N67S, R77K"}, "B15": {"name": "anti-CD22 heavy chain-only antibody Clone ID 335185 (antibody, V domains shown)", "VH": "B1 VH with K83N, S104N"}, "B16": {"name": "anti-CD22 heavy chain-only antibody Clone ID 335160 (antibody, V domains shown)", "VH": "B1 VH with H52S, R77K, E100D, S104N"}, "B17": {"name": "anti-CD22 heavy chain-only antibody Clone ID 335161 (antibody, V domains shown)", "VH": "B1 VH with K66E, R77K, E100D, S104N"}, "B18": {"name": "anti-CD22 heavy chain-only antibody Clone ID 335151 (antibody, V domains shown)", "VH": "B1 VH with K83N, E100D, S104N"}, "B19": {"name": "anti-CD22 heavy chain-only antibody Clone ID 335159 (antibody, V domains shown)", "VH": "B1 VH with D27G, G32S, D33S, A58V, R77K, V94A, E100D, S104N"}, "B20": {"name": "anti-CD22 heavy chain-only antibody Clone ID 335150 (antibody, V domains shown)", "VH": "B1 VH with P42S, G44E, A58V, R77K, T98K, E100D, S104N"}, "B21": {"name": "anti-CD22 heavy chain-only antibody Clone ID 335187 (antibody, V domains shown)", "VH": "B1 VH with D27G, G32S, D33S, R77K, E100D, S104N"}, "B22": {"name": "anti-CD22 heavy chain-only antibody Clone ID 335274 (antibody, V domains shown)", "VH": "B1 VH with D27G, G32S, D33S, H52S, A58S, N67S, K83N"}, "B23": {"name": "anti-CD22 heavy chain-only antibody Clone ID 335316 (antibody, V domains shown)", "VH": "B1 VH with D27G, G32S, D33S, R77K"}, "B24": {"name": "anti-CD22 heavy chain-only antibody Clone ID 335162 (antibody, V domains shown)", "VH": "QLQLQESGPGLVKPSETLSLTCTVSGGSIISSSYYWGWIRQPPGKGLEWIGSIYYSGSAYYHPSLKSRVTISIDTSKNQFSLKLSSVTAADTAVYYCARDDSSNWRSRGQGTLVTVSS"}},
  "key": {"human CD22 [1]": {"molecular_target": "T1, human CD22 (human, UniProt P20273 20-687)", "T1 sequence (P20273 20-687)": "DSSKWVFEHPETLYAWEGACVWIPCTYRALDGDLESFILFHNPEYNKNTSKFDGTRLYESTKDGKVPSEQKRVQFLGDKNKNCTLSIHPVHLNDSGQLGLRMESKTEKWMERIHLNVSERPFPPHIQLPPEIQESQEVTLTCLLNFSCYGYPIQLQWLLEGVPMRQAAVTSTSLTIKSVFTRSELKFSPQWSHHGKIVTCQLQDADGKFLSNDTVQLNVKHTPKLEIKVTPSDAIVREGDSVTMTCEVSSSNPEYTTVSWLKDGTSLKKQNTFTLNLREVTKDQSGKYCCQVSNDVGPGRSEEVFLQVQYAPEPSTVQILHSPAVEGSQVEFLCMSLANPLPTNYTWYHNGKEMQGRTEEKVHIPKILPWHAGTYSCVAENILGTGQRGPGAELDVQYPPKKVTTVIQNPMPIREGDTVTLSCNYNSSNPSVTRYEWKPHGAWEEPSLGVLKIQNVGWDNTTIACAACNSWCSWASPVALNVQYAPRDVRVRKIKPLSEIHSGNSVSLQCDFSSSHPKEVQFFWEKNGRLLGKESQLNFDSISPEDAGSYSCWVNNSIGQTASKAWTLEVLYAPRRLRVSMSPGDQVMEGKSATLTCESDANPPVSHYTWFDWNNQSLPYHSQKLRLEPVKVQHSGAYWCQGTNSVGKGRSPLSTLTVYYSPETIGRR", "test": "BLI", "how_it_was_run": "(§1)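 Heavy chain-only antibodies were loaded at 5 μg/mL for 120 seconds onto anti-human IgG Fc capture biosensors on an Octet QK-384, using 1×PBS, 0.1% BSA, 0.02% Tween-20, pH 7.2 buffer. Human CD22 protein was applied in a 7-point 1:2 dilution series beginning at 250 nM, alongside a buffer-only reference well, and the data were fit to a 1:1 binding model in Octet Data Analysis v9.0. Kd, the affinity measure from this biolayer interferometry assay, was obtained as koff/kon.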"}, "human CD22 [2]": {"molecular_target": "T1, human CD22", "test": "BLI", "how_it_was_run": "as §1", "remark": "listed apart in the source"}},
  "note": "Substitutions are numbered along the chain they refer to. Like-named read-outs stand apart in the source and are kept apart here.",
  "data": [
    {"binder": "B1", "values": [
      {"measurement": "Kd", "setting": "human CD22 [1]", "value": 7.41, "unit": "nM"}
    ]},
    {"binder": "B2", "values": [
      {"measurement": "Kd", "setting": "human CD22 [1]", "value": 22.4, "unit": "nM"}
    ]},
    {"binder": "B3", "values": [
      {"measurement": "Kd", "setting": "human CD22 [1]", "value": 8.91, "unit": "nM"}
    ]},
    {"binder": "B4", "values": [
      {"measurement": "Kd", "setting": "human CD22 [1]", "value": 12.6, "unit": "nM"}
    ]},
    {"binder": "B5", "values": [
      {"measurement": "Kd", "setting": "human CD22 [1]", "value": 42.3, "unit": "nM"}
    ]},
    {"binder": "B6", "values": [
      {"measurement": "Kd", "setting": "human CD22 [1]", "value": 6.5, "unit": "nM"}
    ]},
    {"binder": "B7", "values": [
      {"measurement": "Kd", "setting": "human CD22 [1]", "value": 5.07, "unit": "nM"}
    ]},
    {"binder": "B8", "values": [
      {"measurement": "Kd", "setting": "human CD22 [1]", "value": 7.53, "unit": "nM"}
    ]},
    {"binder": "B9", "values": [
      {"measurement": "Kd", "setting": "human CD22 [1]", "value": 7.44, "unit": "nM"}
    ]},
    {"binder": "B10", "values": [
      {"measurement": "Kd", "setting": "human CD22 [1]", "value": 2.83, "unit": "nM"}
    ]},
    {"binder": "B11", "values": [
      {"measurement": "Kd", "setting": "human CD22 [1]", "value": 12.5, "unit": "nM"}
    ]},
    {"binder": "B12", "values": [
      {"measurement": "Kd", "setting": "human CD22 [1]", "value": 9.44, "unit": "nM"}
    ]},
    {"binder": "B13", "values": [
      {"measurement": "Kd", "setting": "human CD22 [1]", "value": 21.6, "unit": "nM"}
    ]},
    {"binder": "B14", "values": [
      {"measurement": "Kd", "setting": "human CD22 [1]", "value": 10.3, "unit": "nM"}
    ]},
    {"binder": "B15", "values": [
      {"measurement": "Kd", "setting": "human CD22 [1]", "value": 8.43, "unit": "nM"}
    ]},
    {"binder": "B16", "values": [
      {"measurement": "Kd", "setting": "human CD22 [1]", "value": 8.51, "unit": "nM"}
    ]},
    {"binder": "B17", "values": [
      {"measurement": "Kd", "setting": "human CD22 [1]", "value": 2.66, "unit": "nM"}
    ]},
    {"binder": "B18", "values": [
      {"measurement": "Kd", "setting": "human CD22 [1]", "value": 3.77, "unit": "nM"}
    ]},
    {"binder": "B19", "values": [
      {"measurement": "Kd", "setting": "human CD22 [2]", "value": 16.1, "unit": "nM"}
    ]},
    {"binder": "B20", "values": [
      {"measurement": "Kd", "setting": "human CD22 [2]", "value": 14.1, "unit": "nM"}
    ]},
    {"binder": "B21", "values": [
      {"measurement": "Kd", "setting": "human CD22 [2]", "value": 128, "unit": "nM"}
    ]},
    {"binder": "B22", "values": [
      {"measurement": "Kd", "setting": "human CD22 [2]", "value": 23.6, "unit": "nM"}
    ]},
    {"binder": "B23", "values": [
      {"measurement": "Kd", "setting": "human CD22 [2]", "value": 23.5, "unit": "nM"}
    ]},
    {"binder": "B24", "values": [
      {"measurement": "Kd", "setting": "human CD22 [2]", "value": 99.6, "unit": "nM"}
    ]}
  ]
}
